Laboratory results taken from patent publication WO2017102789A1 (dated 2017).
Changes are numbered by the printed parent chain.

B1: Mab 205.10.1 (antibody, V domains shown)
VH: QVQLVQSGAEVKKPGASVKVSCKASGYTFRSSYISWVRQAPGQGLEWMGWIYAGTGSPSYNQKLQGRVTMTTDTSTSTAYMELRSLRSDDTAVYYCARHRDYYSNSLTYWGQGTLVTVSS
VL: DIVMTQSPDSLAVSLGERATINCKSSQSLLNSGNQKNYLTWYQQKPGQPPKLLIYWASTRESGVPDRFSGSGSGTDFTLTISSLQAEDVAVYYCQSDYSYPYTFGQGTKLEIK
notes: Humanized anti-HER3 antibody; Only variable domains are tied to it
B2: Mab 205.10.3 (antibody, V domains shown)
VH: B1 VH
VL: B1 VL with A90S, V91I
notes: as for B1

Target: T1, human HER3 ECD (human, UniProt P21860 20-643)
T1 construct: also called hHER3-ECD; hu-HER3-ECD
Test: SPR (Biacore T100), antibody captured by anti-Fc gamma antibody, human HER3 ECD 0-1000 nM as analyte, 25°C, Langmuir 1:1 model

| Binder | Kd [nM] |
| --- | --- |
| B1 | 2 |
| B2 | 2 |
